Measurements reported in patent US20250346630A1, “Engineering Peptides Using Peptide Epitope Linker Evolution” (AGENCY FOR SCIENCE, TECHNOLOGY AND RESEARCH, priority 2022, published 2025).
Numbering of substitutions follows the chain as printed. In names and notes the source's numbering stands. One block for each molecule: values may come before it.

Legend:
[1] = target: T1, eIF4E eIF4G interaction site (eIF4E:4G interface) (Homo sapiens, UniProt P06730); experiment: eIF4G^FAM tracer peptide competitive fluorescence anisotropy assay; details: non-reducing conditions, 1:1 binding model, triplicate, Kds > 20,000 denoted non-binders, read-out: Competitive Anisotropy (kd, nM) eIF4AG^FAM
T1 construct: pET11d expression plasmid containing the full-length eIF4E clone; made in house; host or cells: E. coli Rosetta pLysS

[2] = target: T2, LgBiT-eIF4E:SmBiT-VH-DIF^CAP-01 interaction (eIF4E cap-binding site) (Homo sapiens, UniProt P06730); experiment: NanoBIT^CAP complementation assay in HEK293 cells; assay type: cell-based; details: HEK293 cells permeabilized with sub-CMC digitonin; read-out: IC50 for disruption of LgBiT-eIF4E with SmBiT-VH-DIF^CAP-01 interaction
T2 construct: expressed in transfected cells; host or cells: HEK293

eIF4E cap-binding site = target: T3, eIF4E cap-binding site (Homo sapiens, UniProt P06730); experiment: m^7GTP^FAM competitive fluorescence anisotropy assay; details: read-out: Competitive Anisotropy (kd, nM) m^7GTP^FAM, non-reducing conditions, 1:1 binding model, triplicate, Kds > 20,000 denoted non-binders
T3 construct: pET11d expression plasmid containing the full-length eIF4E clone; made in house; host or cells: E. coli Rosetta pLysS

PCNA = target: T4, PCNA (Homo sapiens, UniProt P12004); experiment: Anti-FLAG immunoprecipitation pull down with PCNA; assay type: cell-based; details: HEK293 cells
T4 construct: endogenous in cells; host or cells: HEK293
Protocol: Twenty-four hours prior to transfection or drugging, cells were seeded at a cell density of 1000.000 (HEK293) cells per well of a six-well plate (ThermoFisher Scientific). Transfections were performed using Lipofectamine 3000 (ThermoFisher Scientific) with either 2 μg or the indicated amount of plasmid vectors per well according to the manufacturer's instructions. After a 48-hour incubation period, the cell media was then removed and the cells washed with PBS saline. Cells were directly lysed in the wells with 300 μl of lysis buffer containing 20 mM Hepes pH 7.4, 100 mM NaCl, 5 mM MgCl2, 0.5% NP-40, 1 mM DTT, with protease (Roche) and phosphatase (Sigma-Aldrich) inhibitor cocktail sets added as outlined by the manufacturer's protocols. […] Beads were then washed four times with lysis buffer containing no protease or phosphatase inhibitors. This was then followed by the addition of Laemlee buffer (2×) and the beads boiled for 5 min at 95° C. Samples were centrifuged and the supernatant removed for western blot analysis.
Confluent HEK293FT cells were used to generate lentivirus for infection of target cells. Packaging cells were transfected using calcium phosphate transfection as described below. […]
Samples were resolved on midi or mini Tris-Glycine 4-20% gradient gels (Bio-Rad) according to the manufacturer's protocol. […] B-actin levels were measured to ensure equal loading.

eIF4E = target: T5, eIF4E (Homo sapiens, UniProt P06730); experiment: Direct fluorescence anisotropy titration of eIF4E against labelled tracers; details: 50 nM tracer, 1:1 binding model
T5 construct: pET11d expression plasmid containing the full-length eIF4E clone; made in house; host or cells: E. coli Rosetta pLysS

GST-tagged eIF4E = target: T6, GST-tagged eIF4E (UniProt P06730 1-217); experiment: GST pull-down on glutathione beads with GST-eIF4E, Coomassie stained SDS-PAGE
T6 construct: also called GST-eIF4E; not shown: glutathione S-transferase tag of pGEX-6P1

full-length human eIF4E [3] = target: T7, full-length human eIF4E (human, UniProt P06730 2-217); experiment: anti-FLAG immunoprecipitation from transfected HEK293 cells, western blot
T7 construct: mature; Used here for the purified full-length protein (anisotropy, ITC, crystals) and for endogenous eIF4E of HEK293 cells in pull-downs; also called cellular eIF4E

full-length human eIF4E [4] = target: T7, full-length human eIF4E; experiment: competitive fluorescence anisotropy, displacement of m7GTP^FAM from eIF4E
LgBiT-eIF4E = target: T8, LgBiT-eIF4E (UniProt P06730 1-217); experiment: NanoBit split-luciferase complementation in co-transfected HEK293 cells [CONT.) B]
T8 construct: Expressed in HEK293 cells; also called LgBiT fused eIF4E; not shown: LgBiT (18-kDa NanoLuc fragment, Promega NanoBit)

[5] = target: T9, proliferating cell nuclear antigen (PCNA) (human, UniProt P12004 1-261); experiment: anti-FLAG immunoprecipitation from transfected HEK293 cells, western blot
T9 construct: Used here for the purified protein (anisotropy) and for endogenous PCNA of HEK293 and A375 cells in anti-FLAG pull-downs

Molecule: YVRPRLPHMSQFES [scrambled]
- anti-FLAG pull down in complex with PCNA (PCNA): do not

Molecule: m^7GTP^5-FAM [m^7GTP^FAM]
- Kd (eIF4E): 149 nM

Molecule: m^7GTP^BIOTIN
- Kd [1]: > 20000 nM
- Kd (eIF4E cap-binding site): 34.7 ± 4 nM

B2: FLAG-tagged VH-DIF^CAP-01 MA (M104A) (expressed in HEK293 cells) (designed binder)
VH: MSEVQLVESGGGLVQPGGSLRLSSAISGFSISSTSIDWVRQAPGKGLEWVARISPSSGSTSYADSVKGRFTISADTSKNTVYLQMNSLRAEDTAVYYTGRPLPEAGFFTNIPAMVDYRGQGTLVTVSSGAA
notes: also called VH-DIF^CAP-01 mutant (M104A); VH-DIF^CAP-Cntrl; not shown: C-terminal 3x FLAG tag of the pCDNA3.1 vector
- binding result (full-length human eIF4E [3]): no binding

B3: VH-DiF^CAP-01^Cntrl (purified, His-tagged) (designed binder)
VH: B2 VH
notes: also called VH-DIF^CAP-01 MA (M104A); not shown: C-terminal six-histidine tag from pET-22b(+)
- binding result (full-length human eIF4E [4]): no binding

B5: SmBiT-VH-DIF^CAP-01 E103A (designed binder)
VH: B2 VH with E104A, A105M
notes: also called VH-DIF^CAP-01 EA fused to smBIT; not shown: SmBiT (11-amino-acid NanoLuc fragment)
- binding result (LgBiT-eIF4E): no binding

Other lines, results leading:

- Kd [1]: > 20000 nM
- IC50 [2]: 34500 nM
- Kd (eIF4E cap-binding site): 201 ± 25.2 nM
Molecule: Cn1c[n+]([C@@H]2O[C@H](COP(=O)(O)OP(=O)([O-])O)[C@@H](O)[C@H]2O)c2nc(N)[nH]c(=O)c21 [m^7GDP]

- binding result (GST-tagged eIF4E): no binding
B1: VH-1C5^Scrambled (designed binder)
VH domain, His-tagged, purified: MSEVQLVESGGGLVQPGGSLRLSSAISGFSISSTSIDWVRQAPGKGLEWVARISPSSGSTSYADSVKGRFTISADTSKNTVYLQMNSLRAEDTAVYYTGRGSVLSVAFKPSVDSFSSFYNTNDYRGQGTLVTVSSGAA
notes: CDR3 loop of VH-1C5 scrambled; also called scrambled VH domain (negative control)

- binding result (LgBiT-eIF4E): no binding
B4: SmBiT-VH-DIF^CAP-01 M104A (designed binder)
VH: B2 VH
notes: also called VH-DIF^CAP-01 MA fused to smBIT; not shown: SmBiT (11-amino-acid NanoLuc fragment)

- binding result (full-length human eIF4E [3]): binds
B6: VH-S4 (expressed in HEK293 cells) (designed binder)
VH: MSEVQLVESGGGLVQPGGSLRLSSAISGFSISSTSIDWVRQAPGKGLEWVARISPSSGSTSYADSVKGRFTISADTSKNTVYLQMNSLRAEDTAVYYTGRVAKALNSRSPSFVVNTYSSIGFDYRGQGTLVTVSSGAA

- binding result [5]: no binding
- anti-FLAG pull down in complex with PCNA (PCNA): do not
B7: negative control M4 (FLAG-tagged, expressed in HEK293 cells) (designed binder)
VH: B6 VH with R108S, I120F
notes: not shown: C-terminal 3x FLAG tag of the pCDNA3.1 vector
